The source of these data is patent US20210171647A1 (WUXI BIOLOGICS SHANGHAI, published 2021).

What all share (assay): ELISA, antibody coated, OX40-ECD.His mutant supernatant; relative to silent alanine substitutions;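 further: captured OX40 mutant protein detected with HRP-labelled anti-His antibody, absorbance read-out, scaled to the mean signal of control mutants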
The target in one test is T1, human OX40-ECD.His P172A (human, UniProt P43489 29-214).
T1 construct: extracellular domain; not shown: C-terminal His-tag
T1 sequence (looked up): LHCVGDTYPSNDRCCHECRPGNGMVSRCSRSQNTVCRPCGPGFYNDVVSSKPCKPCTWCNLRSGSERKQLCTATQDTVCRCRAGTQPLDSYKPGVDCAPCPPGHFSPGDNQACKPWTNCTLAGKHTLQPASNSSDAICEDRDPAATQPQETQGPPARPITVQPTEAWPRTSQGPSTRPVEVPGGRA

Another test has as its target T2, human OX40-ECD.His A173G (human, UniProt P43489 29-214).
T2 construct: extracellular domain; not shown: C-terminal His-tag
T2 sequence (looked up): T1 sequence (looked up) with A144P, A145G

Another test deals with T3, human OX40-ECD.His D163A (human, UniProt P43489 29-214).
T3 construct: extracellular domain; not shown: C-terminal His-tag
T3 sequence (looked up): T1 sequence (looked up) with D135A, A144P

In another test the target is T4, human OX40-ECD.His P115A (human, UniProt P43489 29-214).
T4 construct: extracellular domain; not shown: C-terminal His-tag
T4 sequence (looked up): T1 sequence (looked up) with P87A, A144P

Another test concerns the target T5, human OX40-ECD.His T145A (human, UniProt P43489 29-214).
T5 construct: extracellular domain; not shown: C-terminal His-tag
T5 sequence (looked up): T1 sequence (looked up) with T117A, A144P

For another test, the target named is T6, human OX40-ECD.His A140G (human, UniProt P43489 29-214).
T6 construct: extracellular domain; not shown: C-terminal His-tag
T6 sequence (looked up): T1 sequence (looked up) with A112G, A144P

The next test concerns the target T7, human OX40-ECD.His P121A (human, UniProt P43489 29-214).
T7 construct: extracellular domain; not shown: C-terminal His-tag
T7 sequence (looked up): T1 sequence (looked up) with P93A, A144P

The next test concerns the target T8, human OX40-ECD.His R110A (human, UniProt P43489 29-214).
T8 construct: extracellular domain; not shown: C-terminal His-tag
T8 sequence (looked up): T1 sequence (looked up) with R82A, A144P

A further test concerns the target T9, human OX40-ECD.His L116A (human, UniProt P43489 29-214).
T9 construct: extracellular domain; not shown: C-terminal His-tag
T9 sequence (looked up): T1 sequence (looked up) with L88A, A144P

The target in a further test is T10, human OX40-ECD.His K96A (human, UniProt P43489 29-214).
T10 construct: extracellular domain; not shown: C-terminal His-tag
T10 sequence (looked up): T1 sequence (looked up) with K68A, A144P

Positions count from the first letter of the chain named.

Description for human OX40-ECD.His A140G: (§1) After interacting with the supernatant that contains quantified OX40 mutants or human OX40-ECD.His protein, HRP conjugated anti-His antibody (1:5000, GenScript-A00612, CHN) was added as detection antibody. Absorbance was normalized according to the average of control mutants.
Description for human OX40-ECD.His A173G: as §1
Description for human OX40-ECD.His D163A: as §1
Description for human OX40-ECD.His K96A: as §1
Description for human OX40-ECD.His L116A: as §1
Description for human OX40-ECD.His P115A: as §1
Description for human OX40-ECD.His P121A: as §1
Description for human OX40-ECD.His P172A: as §1
Description for human OX40-ECD.His R110A: as §1
Description for human OX40-ECD.His T145A: as §1

B1: 1.134.9-u1-IgG1L (antibody, V domains shown)
VH: QVQLQESGPGLVKPSGTLSLTCAVSGGSISSYNWWSWVRQPPGKGLEWIGEIYHGGNTNYNPSLKSRVTMSVDNSKNQFSLKLSSVTAADTAVYYCARAPGDWGGSPYFDFWGQGTLVTVSS
VL: SSELTQDPAVSVALGQTVRITCQGDNLRTYYASWYQQKPGQAPILLIYGRNKRPSGIPDRFSGSSSGNTASLTITGAQAEDEAAYYCNSRDSSGNPVVFGGGTKLTVL
notes: fully human IgG1, lambda
Take B1: the “Fold Change” value with human OX40-ECD.His P172A is 1.02; with human OX40-ECD.His A173G it was 0.993; in the test with human OX40-ECD.His D163A, 0.318; with human OX40-ECD.His P115A, 0.632; with human OX40-ECD.His T145A it was 0.675; with human OX40-ECD.His A140G it was 0.969. Also, the “Fold Change” value was determined as 0.974 in the test with human OX40-ECD.His P121A, 0.955 with human OX40-ECD.His R110A, 0.982 with human OX40-ECD.His L116A and 0.949 with human OX40-ECD.His K96A.
